Results published in publication PMC2488374, “Study of a Synthetic Human Olfactory Receptor 17-4: Expression and Purification from an Inducible Mammalian Cell Line” (PLoS ONE, 2008).

Biological target: the molecule itself
Assay: SEC; immunoaffinity-purified hOR17-4 at 0.75 mg/ml on HiLoad 16/60 Superdex 200 in PBS + 0.2% w/v fos-choline-14, 1 ml/min; peak fractions analysed by SDS-PAGE and SYPRO-Ruby staining

B1: human olfactory receptor 17-4 with C-terminal GlyGly linker and rho1D4 tag (hOR17-4-GlyGly-rho1D4) (receptor, UniProt P34982 1-312, looked up)
chain: MDGGNQSEGSEFLLLGMSESPEQQRILFWMFLSMYLVTVVGNVLIILAISSDSRLHTPVYFFLANLSFTDLFFVTNTIPKMLVNLQSHNKAISYAGCLTQLYFLVSLVALDNLILAVMAYDRYVAICCPLHYTTAMSPKLCILLLSLCWVLSVLYGLIHTLLMTRVTFCGSRKIHYIFCEMYVLLRMACSNIQINHTVLIATGCFIFLIPFGFVIISYVLIIRAILRIPSVSKKYKAFSTCASHLGAVSLFYGTLCMVYLKPLHTYSVKDSVATVMYAVVTPMMNPFIYSLRNKDMHGALGRLLDKHFKRLT
notes: human olfactory receptor 17-4 (OR1D2), wild type, 312 amino acids; with GlyGly linker and rho1D4 tag the construct has 323 amino acids; Synthetic, human codon-optimised gene in pcDNA4/To; also called OR1D2; hOR17-4-rho
stoichiometry N: 2
